Data reported in patent publication US9399666B2, “Inhibiting interaction between the HIF-1ALPHA and p300/CBP with hydrogen bond surrogate-based helices” (New York University, priority 2008, dated 2016).

How the values were obtained:
circular dichroism = settings: 10 mM phosphate buffered saline (par. 0128, each peptide; pH given only for 22 and 25, Fig 6B), pH 7.4, ns °C
p300 [1] = molecular target: p300 (Homo sapiens, UniProt Q09472); assay: Affinity for p300 by isothermal titration calorimetry; format: binding; settings: isothermal titration calorimetry, p300; read-out: Kd (ITC)
Excerpt: Helix αA of HIF-1α C-TAD, shown in FIG. 1A and FIG. 1C, is critical for the interaction between the CH1 domain and HIF-1α, because mutation of its residues or hydroxylation of Asn803 is known to disrupt this complex and inhibit HIF-1α mediated transcription (Freedman et al., “Structural Basis for Recruitment of CBP/p300 by Hypoxia-inducible Factor-1α,” Proc. Nat'l Acad. Sci. USA 99:5367-72 (2002); Dames et al., “Structural Basis for Hif-1α/CBP Recognition in the Cellular Hypoxic Response,” Proc. Nat'1 Acad. Sci. USA 99:5271-6 (2002). Development of HBS helices as potential inhibitors of VEGF transcription was begun by mimicking the aA helix region of HIF-1. This helix consists of eight residues, […] (SEQ ID NO: 111), and features three residues, Asp-Cys-Glu, critical for binding with p300/CBP. Several linear peptides and their HBS α-helix analogs were designed to gauge the potential of these molecules to inhibit VEGF transcription in cell culture. Each unconstrained peptide and HBS helix was synthesized using the procedures described in (Dimartino et al., “Solid-phase Synthesis of Hydrogen-bond Surrogate-derived α-Helices,” Org. Lett. 7:2389-92 (2005); Chapman & Arora, “Optimized Synthesis of Hydrogen-bond Surrogate Helices: Surprising Effects of Microwave Heating on the Activity of Grubbs Catalysts,” Org. Lett. 8:5825-8 (2006)). The percent helicity of each peptide was determined using circular dichroism spectroscopy in 10 mM phosphate buffered saline as described in (Wang et al., “Evaluation of Biologically Relevant Short α-Helices Stabilized by a Main-chain Hydrogen-bond Surrogate,” J. Am. Chem. Soc. 128:9248-56 (2006)). The affinity of each peptide for p300 was measured by isothermal titration calorimetry analysis (Wiseman et al., “Rapid Measurement of Binding Constants and Heats of Binding Using a New Titration calorimeter,” Anal. Biochem. 179:131-7 (1989); Freire et al., “Isothermal Titration calorimetry,” Anal. Chem. 62:A950-A959 (1990); Chervenak & Toone, “Calorimetric Analysis of the Binding of Lectins with Overlapping Carhohydrate-binding Ligand Specificities,” Biochemistry 34:5685-95 (1995); Aki et al., “Competitive Binding of Drugs to the Multiple Binding Sites on Human Serum Albumin. A calorimetric Study,” J Thermal Anal. calorim. 57:36170 (1999); Graziano et al., “Linkage of Proton Binding to the Thermal Unfolding of Sso7d from the Hyperthermophilic Archaebacterium Sulfolobus solfataricus,” Int'l J. Biol. Macromolecules 26:45-53 (1999); Pluschke & Mutz, “Use of Isothermal Titration calorimetry in the Development of Molecularly Defined Vaccines,” J Thermal Anal. calorim. 57:377-88 (1999); Corbell et al., “A Comparison of Biological and calorimetric Analyses of Multivalent Glycodendrimer Ligands for Concanavalin A,” Tetrahedron-Asymmetry 11:95-111 (2000)). The ability of each peptide to downregulate VEGF transcription in cell culture was evaluated by […] quantitative RT-PCR, as described above. The cytotoxicity of each peptide was determined by monitoring cellular growth and population doubling in the presence of individual peptides at 1μM concentration.

MDA-MB-231-HRE-Luc cells = format: cell-based; settings: 1000 nM
Protocol: MDA-MB-231-HRE-Luc cells were maintained in high glucose Dulbecco's Modified Eagle's Medium (“DMEM”) supplemented with 10% fetal bovine serum and 0.4 g/L Geneticin (G418 sulfate, RPI Corporation). Cells were plated in 24-well dishes (BD Falcon) at a density of […] using 1 mL of a 6.5×10^4 cell/mL suspension. […] Cells were incubated for 6 hours at 37° C. in a humidified atmosphere with 5% CO2. Hypoxia was induced by adding desferoxamine mesylate (DFO, Sigma) to a final concentration of 300 μM, and cells were incubated for an additional 18 hours. Whole cell lysates were isolated by washing the cells twice with ice cold PBS and then adding 150 μL of Cell Culture Lysis Reagent (“CCLR,” Promega). Lysate was collected, centrifuged at 13,000 rpm at 4° C., aliquoted, and stored at −80° C. Luciferase assays were conducted according to the manufacturer's instructions (Promega) using a Turner TD-20e Luminometer. Relative light intensity measurements were normalized by performing a Bradford assay to determine the protein content of the lysate used in the luciferase assay. Briefly, 50 μL of cell lysate/luciferase assay reagent mix was added to 200 μL of Bradford reagent and 750 μL of Millipore water in a 1.5 mL cuvette. Protein standards were created in the range of 1 μg/mL to 10 μg/mL with the appropriate amount of a 1 mg/mL BSA solution. Absorbance was measured at 595 nm using a DU-800 spectrophotometer. The experiments were carried out in triplicate with the error bars calculated as standard error of the mean.

p300 [2] = molecular target: T1, p300 (UniProt Q09472 323-423, limits assumed); assay: isothermal titration calorimetry
T1 construct: also called p300/CBP
T1 sequence (Q09472 323-423 limits assumed): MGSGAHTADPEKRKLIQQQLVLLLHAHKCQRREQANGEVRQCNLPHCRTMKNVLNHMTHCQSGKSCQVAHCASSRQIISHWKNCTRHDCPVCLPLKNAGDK

With `C[C@H](NC(=O)[C@H](CC(N)=O)NC(=O)[C@H](Cc1ccc(O)cc1)NC(=O)[C@H](CCC(=O)O)NC(=O)[C@H](CS)NC(=O)[C@H](CC(=O)O)NC(=O)[C@H](C)N1CC=CCCC(=O)N[C@@H]([C@@H](C)O)C(=O)N[C@@H](C)C1=O)C(=O)N[C@@H](CCCNC(=N)N)C(N)=O` [Compound 22] as the molecule, how does the helicity (circular dichroism) read?
Its helicity is 53%.

What about the Kd (p300 [1]) of the same molecule?
The Kd was 420 ± 35 nM.

Which helicity (circular dichroism) does the source give for `CC(C)[C@H](NC(=O)[C@H](CCC(=O)O)NC(=O)[C@H](CS)NC(=O)[C@H](CC(=O)O)NC(=O)[C@H](Cc1ccc(O)cc1)N1CC=CCCC(=O)N[C@@H]([C@@H](C)O)C(=O)N[C@@H](C)C1=O)C(=O)N[C@@H](CC(N)=O)C(=O)N[C@@H](C)C(N)=O` [Compound 20] here?
The helicity was 44%.

What about the Kd (p300 [1]) of the same molecule?
Its Kd is 540 nM.

And the “% Transcription inhibition in cell culture (Luc)” value (MDA-MB-231-HRE-Luc cells)?
Its value is 0 ± 5 (Luc) %.

What does the source list for `CC(C)[C@H](NC(=O)[C@H](CCC(=O)O)NC(=O)[C@@H](NC(=O)[C@H](CC(=O)O)NC(=O)[C@H](Cc1ccc(O)cc1)N1CC=CCCC(=O)N[C@@H]([C@@H](C)O)C(=O)N[C@@H](C)C1=O)C(C)C)C(=O)N[C@@H](CC(N)=O)C(=O)N[C@@H](C)C(N)=O` [Compound 21]?
helicity (circular dichroism): 16%; Kd (p300 [1]): 690 ± 60 nM

B1: peptide 23 (AcTSYDCEVNA-NH2) (peptide)
peptide: Ac-TSYDCEVNA-NH2
notes: also called linear peptide 23; unconstrained peptide 23
With B1 as the molecule, how does the Kd (p300 [2]) read?
Its Kd is 1350 nM.

B2: peptide 24 (AcTAYDCEVNA-NH2) (peptide)
peptide: Ac-TAYDCEVNA-NH2
notes: Unconstrained analog of HBS peptide 20 (alanine in place of serine-797); also called linear peptide 24; unconstrained peptide 24
For B2, which Kd (p300 [2]) is on record?
The Kd was 1220 nM.

B3: peptide 25 (AcGTAADCEYNAR-NH2) (peptide)
peptide: Ac-GTAADCEYNAR-NH2
notes: Unconstrained analog of HBS helix 22; also called linear control peptide 25; control peptide 25
For B3, which Kd (p300 [2]) is on record?
Its Kd is 825 nM.
